Data: US20100330095A1 (U3 PHARMA, published 2010)

T1: cynomolgus monkey AXL (cynomolgus monkey, UniProt P30530 26-894 (human entry))
T1 construct: Cloned from cynomolgus brain cDNA; transiently expressed on HEK293T cells (pcDNA3-cyAXL); also called cyAXL
T1 chain: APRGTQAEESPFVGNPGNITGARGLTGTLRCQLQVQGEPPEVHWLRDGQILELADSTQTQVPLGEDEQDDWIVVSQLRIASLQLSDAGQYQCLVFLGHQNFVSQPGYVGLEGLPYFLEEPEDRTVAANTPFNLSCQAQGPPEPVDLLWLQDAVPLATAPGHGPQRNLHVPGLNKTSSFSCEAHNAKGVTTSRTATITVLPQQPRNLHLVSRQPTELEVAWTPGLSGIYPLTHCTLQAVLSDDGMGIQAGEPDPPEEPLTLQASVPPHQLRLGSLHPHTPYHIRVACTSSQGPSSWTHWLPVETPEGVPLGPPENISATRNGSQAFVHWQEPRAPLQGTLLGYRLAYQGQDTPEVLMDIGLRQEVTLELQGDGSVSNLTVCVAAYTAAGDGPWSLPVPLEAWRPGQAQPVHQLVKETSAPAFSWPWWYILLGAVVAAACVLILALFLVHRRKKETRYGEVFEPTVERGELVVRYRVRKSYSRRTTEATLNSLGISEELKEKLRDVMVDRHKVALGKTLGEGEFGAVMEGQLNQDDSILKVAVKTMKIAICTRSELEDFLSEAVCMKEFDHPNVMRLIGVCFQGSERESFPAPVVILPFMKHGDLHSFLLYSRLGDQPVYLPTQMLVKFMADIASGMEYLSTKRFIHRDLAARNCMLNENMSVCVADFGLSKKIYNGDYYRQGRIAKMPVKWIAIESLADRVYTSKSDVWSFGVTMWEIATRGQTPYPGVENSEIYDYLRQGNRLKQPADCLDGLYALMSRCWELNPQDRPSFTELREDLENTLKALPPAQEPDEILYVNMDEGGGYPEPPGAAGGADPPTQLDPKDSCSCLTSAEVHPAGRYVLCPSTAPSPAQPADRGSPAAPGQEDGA

T2: human receptor tyrosine kinase AXL transcript variant 1 (human, UniProt P30530 26-894)
T2 construct: Overexpressed on RatI-AXL cl.2 and NIH3T3-AXL cl.7 fibroblasts (pLXSN-hAXL); endogenous on human cancer cell lines and HUVEC in the functional assays; also called hAXL; human AXL
T2 sequence: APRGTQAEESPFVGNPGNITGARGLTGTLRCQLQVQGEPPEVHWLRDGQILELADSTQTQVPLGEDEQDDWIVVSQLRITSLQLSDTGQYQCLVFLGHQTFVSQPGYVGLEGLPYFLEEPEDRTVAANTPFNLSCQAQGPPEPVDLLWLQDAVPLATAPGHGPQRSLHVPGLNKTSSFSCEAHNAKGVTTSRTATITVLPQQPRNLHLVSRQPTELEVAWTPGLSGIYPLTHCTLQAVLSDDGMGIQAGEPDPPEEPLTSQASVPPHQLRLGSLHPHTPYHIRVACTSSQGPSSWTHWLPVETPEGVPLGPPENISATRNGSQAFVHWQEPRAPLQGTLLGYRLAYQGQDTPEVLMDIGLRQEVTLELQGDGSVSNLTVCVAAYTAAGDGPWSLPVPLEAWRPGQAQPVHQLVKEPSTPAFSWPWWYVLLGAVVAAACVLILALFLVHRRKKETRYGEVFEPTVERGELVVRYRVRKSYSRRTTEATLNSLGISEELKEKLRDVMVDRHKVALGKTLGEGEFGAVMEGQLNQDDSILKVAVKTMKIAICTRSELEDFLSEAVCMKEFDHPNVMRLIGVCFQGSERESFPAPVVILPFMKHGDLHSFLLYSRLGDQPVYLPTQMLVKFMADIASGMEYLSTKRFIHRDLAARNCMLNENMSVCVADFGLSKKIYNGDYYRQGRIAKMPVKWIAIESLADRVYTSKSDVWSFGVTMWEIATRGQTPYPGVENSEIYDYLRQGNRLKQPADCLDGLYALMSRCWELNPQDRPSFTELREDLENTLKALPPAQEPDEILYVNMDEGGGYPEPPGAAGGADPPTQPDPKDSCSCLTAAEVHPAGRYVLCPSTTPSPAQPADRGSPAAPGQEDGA


What was measured:
cynomolgus monkey AXL = target: T1, cynomolgus monkey AXL; assay: flow cytometry, transfected HEK293T cells, 10 µg/ml
Procedure: FIG. 3. Flow cytometry analysis of cross-reactivity of rat-anti AXL antibodies with mouse and cynomolgus monkey AXL as well as human Mer and Sky. HEK293T fibroblasts were transiently transfected with pcDNA3, pcDNA3-hAXL, pcDNA3 mAXL, pcDNA3-cyAXL, pcDNA3-hMer, or pcDNA3-hSky. […] See text for details.
For FACS analysis, 2×10⁵ cells were harvested with 10 mM EDTA in PBS, washed once with FACS buffer (PBS, 3% FCS, 0.4% azide) and seeded on a 96 well round bottom plate. […] After incubation on ice for 1 h, cells were washed twice with chilled FACS buffer and resuspended with PE-conjugated donkey anti-rat (Jackson) secondary antibody diluted 1:50 in FACS buffer (100 μl/well) or PE-conjugated donkey anti-mouse secondary antibody for control. Protected from light, cells were incubated on ice for 30 min, washed twice with FACS buffer and analyzed using an Epics XL-MCL flow cytometer (Beckman Coulter).

[1] = target: T2, human receptor tyrosine kinase AXL …; assay: FACS Scatchard (apparent KD) on human AXL overexpressing NIH3T3 cells
Procedure: Human AXL overexpression NIH3T3 cells were harvested by incubation with 10 mM EDTA in PBS and resuspended at 6 million cells per ml in FACS buffer (PBS pH 7.4, 3% FCS, 0.1% NaN₃). […] Antibody binding was allowed to proceed for 2 hours on ice. Then, cells were washed twice with 250 μl FACS buffer per well, and resuspended in 200 μl of secondary antibody (anti-rat-PE; Jackson) diluted 1:50 in FACS buffer. After 45 minutes of incubation, cells were again washed twice in FACS buffer and resuspended in […] PBS for FACS analysis. Analysis was carried out on a Beckman-Coulter FACS FC500. To determine the apparent affinity constant KDapp, mean fluorescence values were plotted against the ratio of mean fluorescence and the corresponding antibody concentration ([M]).

[2] = target: T2, human receptor tyrosine kinase AXL …; assay: cell-based or functional assay

| binding result (cynomolgus monkey AXL) | Kd [1] [µM] | IC50 of VEGF-A-stimulated HUVEC spheroid sprouting [2] [µM] | Binder |
| --- | --- | --- | --- |
| binds | 0.00038 | 0.098 | I 11B7 (antibody, V domains shown, rat hybridoma antibody, antagonistic) VH: EVQLQESGPGLVKPSQSLSLTCSVTGYSITSNYWGWIRKFPGDKMEWMGYITYSGSTSYNPSLKSRISITRDTSKNQFFLQLNSVTSEDTATYYCAITTFYYWGQGVMVTVSS VL: DIQMTQAPSSLPASLGDRVTITCRASQDIGNYLRWFQQKPGKSPRLMISGATNLAAGVPSRFSGSRSGSDYSLTISSLESEDMADYYCLQSKESPWTFGGGTKLELK |
| binds |  |  | I 10D12 (antibody, V domains shown, rat hybridoma antibody, antagonistic; subclass G1) VH: EVQLQESGPGLVKPSQSLSLTCSVTGYSITSNYWGWIRKFPGNKMEWMGYITNSGGTAYNPSLKSRISITRDTSKNQFFLQLNSVIPEDSATYFCSRTPWDWGQGVMVTVSS VL: DIQMTQAPSSLPASLGDRVTIACRASQDIGNYLRWFQQKPGKSPRLMISGATNLAAGVPSRFSGSRSGSDYSRTISSLESEDMADYYCLQSKESPWTFGGGTKLELK |
| binds | 0.00081 | 0.7 | III 11D5 (antibody, rat IgG2a, V domains shown, rat hybridoma antibody, antagonistic) VH: EVQLQESGPGLVKPSQSLSLTCSVTGYSITSNYWGWIRKFPGNKMEWIGHITNSGNTTYNPSLKSRISISRDTSRNQFFLQLNSVTTEDTATYYCAKGAFDYWGQGVMVTVSS VL: DIQMTQSPSSMSTSLGDRVTITCRASQDIGNYLSWFQQKVGKSPRRMIYGAIKLAVGVPSRFSGSRSGSDYSLTISSLESEDMAIYYCLQYIQFPLTFGSGTKLELK |
